Data: PMC9927934

Molecular target: L973F mutant human insulin receptor B isoform, FLAG tagged (human)

B1: Shc (natural protein)
chain: MDLLPPKPKYNPLRNESLSSLEEGASGSTPPEELPSPSASSLGPILPPLPGDDSPTTLCSFFPRMSNLKLANPAGGRLGPKGEPGKAAEDGEGSAGAALRDSGLLPLLQDMNKLSGGGGRRTRVEGGQLGGEEWTRHGSFVNKPTRGWLHPNDKVMGPGVSYLVRYMGCVEVLQSMRALDFNTRTQVTREAISLVCEAVPGAKGATRRRKPCSRPLSSILGRSNLKFAGMPITLTVSTSSLNLMAADCKQIIANHHMQSISFASGGDPDTAEYVAYVAKDPVNQRACHILECPEGLAQDVISTIGQAFELRFKQYLRNPPKLVTPHDRMAGFDGSAWDEEEEEPPDHQYYNDFPGKEPPLGGVVDMRLREGAARPTLPSAQMSSHLGATLPIGQHAAGDHEVRKQMLPPPPCPGRELFDDPSYVNIQNLDKARQAGGGAGPPNPSLNGSAPRDLFDMKPFEDALRVPPPPQSMSMAEQLQGEPWFHGKLSRREAEALLQLNGDFLVRESTTTPGQYVLTGLQSGQPKHLLLVDPEGVVRTKDHRFESVSHLISYHMDNHLPIISAGSELCLQQPVDRKV
  Shc phosphorylation in L973F-IR cells against WT-IR cells, immunoblot, 1 to 100 nM insulin for 15 minutes (printed together with Gab-1 and ERK phosphorylation): 2 to 4 fold
